Test results taken from publication PMC8012715, “Mechanism of NanR gene repression and allosteric induction of bacterial sialic acid metabolism” (Nature Communications, 2021).

Experiments:
[1] = biological target: T1, NanR (Escherichia coli K12) (UniProt P0A8W0); assay: EMSA; conditions: 10 nM DNA, EMSA: 10 mM MOPS pH 7.5, 50 mM KCl, 5 mM MgCl2, 10% glycerol, 30 min at room temperature, gel at 4 C, fluorescence AUC: 20 mM Tris-HCl pH 8.0, 150 mM NaCl …
T1 sequence: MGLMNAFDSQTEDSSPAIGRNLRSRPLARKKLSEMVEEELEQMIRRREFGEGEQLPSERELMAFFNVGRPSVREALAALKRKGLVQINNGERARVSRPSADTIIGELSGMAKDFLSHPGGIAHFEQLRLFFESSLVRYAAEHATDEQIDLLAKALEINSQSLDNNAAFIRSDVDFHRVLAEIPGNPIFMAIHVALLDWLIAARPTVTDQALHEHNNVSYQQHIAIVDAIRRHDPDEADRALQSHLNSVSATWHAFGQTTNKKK

[2] = biological target: T1, NanR (Escherichia coli K12); assay: fluorescence-detected AUC; conditions: 80 nM DNA, EMSA: 10 mM MOPS pH 7.5, 50 mM KCl, 5 mM MgCl2, 10% glycerol, 30 min at room temperature, gel at 4 C, fluorescence AUC: 20 mM Tris-HCl pH 8.0, 150 mM NaCl …

Substance: (GGTATA)2-repeat, FAM
- Kd ([1]; Hill n = 2.8 ± 0.3, two complexes): 0.025 µM

Substance: (GGTATA)3-repeat operator, FAM
- Kd ([1]; Hill n = 2.0 ± 0.2, apparent KD): 0.039 µM
- Kd ([2]; 20 mM Neu5Ac, Hill n = 2.0 ± 0.6): 0.578 µM
- Kd ([2]; Hill n = 1.9 ± 0.2, no Neu5Ac): 0.02 µM
